Measurements: paper PMC2777448 (Nucleic Acids Research, 2009)

What was measured:
Experiment in all cases: pull-down
[1] = target: T1, (His)9-tagged srs2 1–910 (S. cerevisiae, UniProt P12954 1-910)
T1 sequence: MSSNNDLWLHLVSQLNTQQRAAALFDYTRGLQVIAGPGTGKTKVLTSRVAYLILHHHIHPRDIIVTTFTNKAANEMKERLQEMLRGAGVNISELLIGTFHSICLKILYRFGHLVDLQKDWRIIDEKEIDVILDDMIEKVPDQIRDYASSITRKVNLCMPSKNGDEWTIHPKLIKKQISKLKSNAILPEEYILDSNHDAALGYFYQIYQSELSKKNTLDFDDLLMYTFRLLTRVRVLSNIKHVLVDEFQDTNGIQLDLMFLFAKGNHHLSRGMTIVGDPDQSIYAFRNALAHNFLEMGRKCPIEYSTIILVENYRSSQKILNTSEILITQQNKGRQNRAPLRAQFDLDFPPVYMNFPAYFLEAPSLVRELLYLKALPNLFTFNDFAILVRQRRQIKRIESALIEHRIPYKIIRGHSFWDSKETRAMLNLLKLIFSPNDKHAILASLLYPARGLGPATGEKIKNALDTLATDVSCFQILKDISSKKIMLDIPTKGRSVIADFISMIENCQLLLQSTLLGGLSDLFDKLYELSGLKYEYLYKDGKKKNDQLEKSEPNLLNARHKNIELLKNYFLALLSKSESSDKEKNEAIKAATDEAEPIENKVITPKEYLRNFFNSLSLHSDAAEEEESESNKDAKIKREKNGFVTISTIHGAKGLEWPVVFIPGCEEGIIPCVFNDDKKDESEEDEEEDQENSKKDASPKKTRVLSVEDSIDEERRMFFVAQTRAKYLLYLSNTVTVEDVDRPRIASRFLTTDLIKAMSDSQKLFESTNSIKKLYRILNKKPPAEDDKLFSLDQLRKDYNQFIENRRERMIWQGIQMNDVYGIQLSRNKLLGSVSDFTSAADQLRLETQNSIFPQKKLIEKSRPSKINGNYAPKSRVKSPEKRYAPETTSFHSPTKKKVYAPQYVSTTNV

[2] = target: T2, (His)9-tagged srs2 1–890 (S. cerevisiae, UniProt P12954 1-890)
T2 sequence: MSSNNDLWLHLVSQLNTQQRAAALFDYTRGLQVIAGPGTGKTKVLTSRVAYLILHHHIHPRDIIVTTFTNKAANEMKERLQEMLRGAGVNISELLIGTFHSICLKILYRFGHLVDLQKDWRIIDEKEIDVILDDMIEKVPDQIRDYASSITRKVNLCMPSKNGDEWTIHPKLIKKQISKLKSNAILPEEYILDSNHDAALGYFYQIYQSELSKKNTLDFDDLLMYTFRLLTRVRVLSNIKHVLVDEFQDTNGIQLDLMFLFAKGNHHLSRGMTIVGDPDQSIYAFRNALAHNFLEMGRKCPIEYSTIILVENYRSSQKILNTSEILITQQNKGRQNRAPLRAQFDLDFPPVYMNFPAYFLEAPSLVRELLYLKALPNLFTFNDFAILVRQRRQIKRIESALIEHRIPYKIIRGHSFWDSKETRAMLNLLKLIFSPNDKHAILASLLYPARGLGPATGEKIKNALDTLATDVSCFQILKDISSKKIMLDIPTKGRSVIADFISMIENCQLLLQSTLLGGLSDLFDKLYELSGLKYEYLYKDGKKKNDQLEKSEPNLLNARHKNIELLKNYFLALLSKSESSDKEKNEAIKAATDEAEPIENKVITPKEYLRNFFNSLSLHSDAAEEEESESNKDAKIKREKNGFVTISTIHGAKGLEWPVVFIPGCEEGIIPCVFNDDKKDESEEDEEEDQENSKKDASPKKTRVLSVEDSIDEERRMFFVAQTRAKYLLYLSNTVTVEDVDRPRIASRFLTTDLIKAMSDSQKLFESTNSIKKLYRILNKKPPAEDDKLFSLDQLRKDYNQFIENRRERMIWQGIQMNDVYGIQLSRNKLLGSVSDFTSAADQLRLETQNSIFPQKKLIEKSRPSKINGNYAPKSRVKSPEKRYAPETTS

[3] = target: T3, (His)9-tagged srs2 1–998 (S. cerevisiae, UniProt P12954 1-998)
T3 sequence: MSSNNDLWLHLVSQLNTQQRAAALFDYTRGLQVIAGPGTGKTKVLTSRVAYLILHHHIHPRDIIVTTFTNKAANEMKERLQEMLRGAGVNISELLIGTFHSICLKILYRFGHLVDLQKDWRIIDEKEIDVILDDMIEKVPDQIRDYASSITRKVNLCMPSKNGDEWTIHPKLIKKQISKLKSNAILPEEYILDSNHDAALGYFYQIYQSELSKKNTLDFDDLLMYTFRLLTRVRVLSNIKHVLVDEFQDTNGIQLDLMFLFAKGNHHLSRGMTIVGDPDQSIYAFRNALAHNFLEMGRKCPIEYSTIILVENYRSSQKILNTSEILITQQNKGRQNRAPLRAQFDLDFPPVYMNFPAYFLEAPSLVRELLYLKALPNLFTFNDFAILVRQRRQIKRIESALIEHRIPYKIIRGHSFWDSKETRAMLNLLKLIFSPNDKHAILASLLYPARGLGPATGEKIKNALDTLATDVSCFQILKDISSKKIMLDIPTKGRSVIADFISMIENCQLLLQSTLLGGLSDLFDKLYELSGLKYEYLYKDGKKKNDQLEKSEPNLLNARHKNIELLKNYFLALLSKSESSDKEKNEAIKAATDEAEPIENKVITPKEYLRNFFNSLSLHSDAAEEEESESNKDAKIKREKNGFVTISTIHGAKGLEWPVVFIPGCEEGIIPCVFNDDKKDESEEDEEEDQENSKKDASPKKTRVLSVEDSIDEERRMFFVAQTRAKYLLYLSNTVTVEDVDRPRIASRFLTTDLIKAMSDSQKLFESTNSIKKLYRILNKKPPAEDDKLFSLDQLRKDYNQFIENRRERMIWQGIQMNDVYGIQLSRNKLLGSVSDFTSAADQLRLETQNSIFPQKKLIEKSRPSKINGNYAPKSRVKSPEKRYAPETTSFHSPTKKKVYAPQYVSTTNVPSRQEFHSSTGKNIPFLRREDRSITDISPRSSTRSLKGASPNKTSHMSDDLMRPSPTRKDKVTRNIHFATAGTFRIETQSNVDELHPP

[4] = target: T4, (His)9-tagged full length Srs2 (S. cerevisiae, UniProt P12954 1-1174)
T4 sequence: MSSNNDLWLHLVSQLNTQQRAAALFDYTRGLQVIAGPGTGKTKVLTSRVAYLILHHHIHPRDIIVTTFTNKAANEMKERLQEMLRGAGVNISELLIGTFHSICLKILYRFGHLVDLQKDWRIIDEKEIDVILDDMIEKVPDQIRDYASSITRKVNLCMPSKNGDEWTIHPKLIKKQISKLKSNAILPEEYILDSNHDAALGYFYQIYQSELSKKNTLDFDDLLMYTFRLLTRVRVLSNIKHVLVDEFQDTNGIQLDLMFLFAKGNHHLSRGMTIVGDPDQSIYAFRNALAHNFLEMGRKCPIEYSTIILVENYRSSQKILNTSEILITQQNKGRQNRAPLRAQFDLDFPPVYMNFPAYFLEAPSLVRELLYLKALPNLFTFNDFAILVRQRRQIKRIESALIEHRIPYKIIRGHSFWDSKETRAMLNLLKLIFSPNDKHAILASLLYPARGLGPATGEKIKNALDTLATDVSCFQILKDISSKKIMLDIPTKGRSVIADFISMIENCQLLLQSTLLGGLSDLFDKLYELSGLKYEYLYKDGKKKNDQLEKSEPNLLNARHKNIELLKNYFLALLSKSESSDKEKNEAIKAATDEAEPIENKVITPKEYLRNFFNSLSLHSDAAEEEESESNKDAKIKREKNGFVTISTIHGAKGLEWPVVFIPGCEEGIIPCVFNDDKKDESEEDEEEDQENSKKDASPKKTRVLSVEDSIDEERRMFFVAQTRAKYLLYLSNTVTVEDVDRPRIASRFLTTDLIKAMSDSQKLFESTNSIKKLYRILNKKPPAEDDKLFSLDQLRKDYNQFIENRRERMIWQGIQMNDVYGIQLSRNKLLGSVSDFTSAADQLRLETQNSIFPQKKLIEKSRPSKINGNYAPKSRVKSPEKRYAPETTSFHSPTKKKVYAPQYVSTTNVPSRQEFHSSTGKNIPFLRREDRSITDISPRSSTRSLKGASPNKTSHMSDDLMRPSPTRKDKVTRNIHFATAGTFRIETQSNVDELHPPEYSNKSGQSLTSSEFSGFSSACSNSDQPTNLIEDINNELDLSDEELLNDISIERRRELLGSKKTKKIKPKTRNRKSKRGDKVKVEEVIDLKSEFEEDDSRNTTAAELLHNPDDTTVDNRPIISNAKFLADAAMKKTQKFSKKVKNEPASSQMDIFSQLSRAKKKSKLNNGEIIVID

Measured: binding result

B1: Rad51 (natural protein)
chain: MSQVQEQHISESQLQYGNGSLMSTVPADLSQSVVDGNGNGSSEDIEATNGSGDGGGLQEQAEAQGEMEDEAYDEAALGSFVPIEKLQVNGITMADVKKLRESGLHTAEAVAYAPRKDLLEIKGISEAKADKLLNEAARLVPMGFVTAADFHMRRSELICLTTGSKNLDTLLGGGVETGSITELFGEFRTGKSQLCHTLAVTCQIPLDIGGGEGKCLYIDTEGTFRPVRLVSIAQRFGLDPDDALNNVAYARAYNADHQLRLLDAAAQMMSESRFSLIVVDSVMALYRTDFSGRGELSARQMHLAKFMRALQRLADQFGVAVVVTNQVVAQVDGGMAFNPDPKKPIGGNIMAHSSTTRLGFKKGKGCQRLCKVVDSPCLPEAECVFAIYEDGVGDPREEDE
binds: all assays above
